Experimental data: article PMC7060403 (Journal of molecular biology, 2019)

T1: RavP-N (N-terminal region of the rabies virus phosphoprotein, residues 1-152) (rabies virus, UniProt P22363 1-152)
T1 sequence: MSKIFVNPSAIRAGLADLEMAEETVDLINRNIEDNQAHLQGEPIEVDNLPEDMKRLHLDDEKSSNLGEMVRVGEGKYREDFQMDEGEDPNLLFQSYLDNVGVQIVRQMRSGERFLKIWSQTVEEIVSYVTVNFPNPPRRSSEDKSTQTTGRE

B1: LC8 from Drosophila melanogaster (natural protein, UniProt Q24117 1-89, looked up)
chain: MSDRKAVIKNADMSEEMQQDAVDCATQALEKYNIEKDIAAYIKKEFDKKYNPTWHCIVGRNFGSYVTHETRHFIYFYLGQVAILLFKSG
B2: full-length rabies virus phosphoprotein (RavP-FL, residues 1-297) (natural protein)
chain: MSKIFVNPSAIRAGLADLEMAEETVDLINRNIEDNQAHLQGEPIEVDNLPEDMKRLHLDDEKSSNLGEMVRVGEGKYREDFQMDEGEDPNLLFQSYLDNVGVQIVRQMRSGERFLKIWSQTVEEIVSYVTVNFPNPPRRSSEDKSTQTTGRELKKETTSAFSQRESQPSKARMVAQVAPGPPALEWSATNEEDDLSVEAEIAHQIAESFSKKYKFPSRSSGIFLYNFEQLKMNLDDIVKEAKNVPGVTRLAHDGSKIPLRCVLGWVALANSKKFQLLVEADKLSKIMQDDLNRYTSC

Columns and labels:
[1] = biological target: B2; test: ITC
[2] = biological target: T1, RavP-N (N-terminal region of the rabies …); test: ITC
SEC-MALS = biological target: the molecule itself; test: SEC-MALS

Row | Binder | Kd [1] | stoichiometry N [1] | Kd [2] | stoichiometry N (SEC-MALS)
1 | B1 | 82 nM | 1 | 30 nM | –
2 | B2 | – | – | – | 2
